Results from publication PMC9609998, “Bioimaging Nucleic-Acid Aptamers with Different Specificities in Human Glioblastoma Tissues Highlights Tumoral Heterogeneity”.

Molecular target: integrin α5β1 (in human FFPE glioblastoma sections) (human, UniProt P08648;P05556 42-1049;21-798)
Test: aptahistofluorescence; FFPE GBM, 1 or 2 µM aptamer; frozen sections too low to detect; Flow cytometry: 300,000 cells detached with 0.2 M EDTA, 30 min with Cy5-aptamer; tissue: selection buffer, 2% BSA +/- 100 µg/mL yeast tRNA block, 1 h on ice; aptamers denatured at 95 °C 3 min then ice 5 min; buffer composition, salt and pH not given in material
Settings: protein: native; copies: 1;1; label: 3'-Cy5

integrin α5β1 (in human FFPE glioblastoma sections), sequence (P08648 42-1049, chain 1 of 2): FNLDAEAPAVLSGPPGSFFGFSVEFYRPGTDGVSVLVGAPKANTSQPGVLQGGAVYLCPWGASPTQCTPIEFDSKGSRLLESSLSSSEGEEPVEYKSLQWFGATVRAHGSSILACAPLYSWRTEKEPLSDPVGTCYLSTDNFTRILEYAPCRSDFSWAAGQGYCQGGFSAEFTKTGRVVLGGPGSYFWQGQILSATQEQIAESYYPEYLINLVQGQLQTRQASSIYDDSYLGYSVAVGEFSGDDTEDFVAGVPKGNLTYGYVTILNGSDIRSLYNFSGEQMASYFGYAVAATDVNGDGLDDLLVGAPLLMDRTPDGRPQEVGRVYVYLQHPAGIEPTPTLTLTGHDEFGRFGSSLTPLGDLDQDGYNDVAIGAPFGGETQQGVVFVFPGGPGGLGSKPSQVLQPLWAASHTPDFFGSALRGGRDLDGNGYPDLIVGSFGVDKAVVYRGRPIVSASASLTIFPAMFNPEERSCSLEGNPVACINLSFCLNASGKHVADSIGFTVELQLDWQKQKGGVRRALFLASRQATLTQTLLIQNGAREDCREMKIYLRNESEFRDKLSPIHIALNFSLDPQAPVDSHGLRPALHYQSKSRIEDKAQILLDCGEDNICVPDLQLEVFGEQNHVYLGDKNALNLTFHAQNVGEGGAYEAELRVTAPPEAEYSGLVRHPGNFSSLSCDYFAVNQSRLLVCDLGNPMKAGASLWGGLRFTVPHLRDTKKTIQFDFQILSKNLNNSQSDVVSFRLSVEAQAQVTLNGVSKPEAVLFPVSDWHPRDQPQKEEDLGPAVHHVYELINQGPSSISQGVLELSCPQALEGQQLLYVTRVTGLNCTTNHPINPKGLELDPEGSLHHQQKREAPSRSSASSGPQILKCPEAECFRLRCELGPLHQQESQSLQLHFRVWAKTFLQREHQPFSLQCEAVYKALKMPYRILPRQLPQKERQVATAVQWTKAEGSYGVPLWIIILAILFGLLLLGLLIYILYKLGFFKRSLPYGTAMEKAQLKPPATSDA
integrin α5β1 (in human FFPE glioblastoma sections), sequence (P05556 21-798, chain 2 of 2): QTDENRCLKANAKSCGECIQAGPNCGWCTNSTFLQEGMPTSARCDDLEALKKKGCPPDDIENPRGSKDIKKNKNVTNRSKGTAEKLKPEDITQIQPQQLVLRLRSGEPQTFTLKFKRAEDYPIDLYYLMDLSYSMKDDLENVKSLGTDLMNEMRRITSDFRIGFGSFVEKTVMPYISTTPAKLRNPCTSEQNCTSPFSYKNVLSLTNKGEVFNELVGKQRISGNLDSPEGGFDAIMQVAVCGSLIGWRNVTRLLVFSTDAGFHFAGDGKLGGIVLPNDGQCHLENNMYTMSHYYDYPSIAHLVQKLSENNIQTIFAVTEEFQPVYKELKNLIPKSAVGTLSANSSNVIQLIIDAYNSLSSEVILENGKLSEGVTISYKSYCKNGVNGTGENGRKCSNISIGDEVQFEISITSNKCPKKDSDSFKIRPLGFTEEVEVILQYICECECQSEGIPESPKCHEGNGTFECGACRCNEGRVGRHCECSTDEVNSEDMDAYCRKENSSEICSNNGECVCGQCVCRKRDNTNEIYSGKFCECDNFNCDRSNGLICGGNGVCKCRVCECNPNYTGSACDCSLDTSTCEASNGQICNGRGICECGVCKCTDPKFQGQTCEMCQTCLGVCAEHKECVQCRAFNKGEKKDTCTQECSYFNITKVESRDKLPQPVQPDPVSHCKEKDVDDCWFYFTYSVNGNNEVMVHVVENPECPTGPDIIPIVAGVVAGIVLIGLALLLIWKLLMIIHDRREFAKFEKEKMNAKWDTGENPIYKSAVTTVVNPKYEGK

B1: H02-Cy5 (XNA)
RNA: GGUUACCAGCCUUCACUGCGGACGGACAGAGAGUGCAACCUGCCGUGCCGCACCACGGUCGGUCACAC
modifications: 2'-fluoro pyrimidines (2'F-RNA)
Question: Does B1 bind?
Answer: binds
